The values below come from paper PMC4537775 (Cell, 2015).

Substitutions are numbered along the chain they refer to. Names and notes keep the numbering of the source. Where two headings read alike, the source gives them in different places.

Data set [1] deals with the molecule itself. The data set is described as follows: SEC.
Data set [2] concerns the molecule itself. The experiment in a line: SEC. This is another data set of the same source.

B1: full-length IstB (AAA+ ATPase subunit of the Geobacillus stearothermophilus IS21 family member IS5376) (natural protein, UniProt Q45619 1-251, looked up)
chain: MKERIHEYCHRLHLPVMAERWSAMAEYASTHNISYSEFLFRLLEAEIVEKQARSIQTLIKLSKLPYRKTIDTFDFTAQPSVDERRIRELLTLSFIDRKENILFLGPPGIGKTHLAISIGMEAIARGYKTYFITAHDLVNQLRRADQEGKLEKKLRVFVKPTVLIIDEMGYLKLDPNSAHYLFQVIARRYEHAPIILTSNKSFGEWGEIVGDSVLATAMLDRLLHHSIIFNLKGESYRLREKRLQEEKQKDQ
On to B1, for which the “stoichiometry N” value in data set [1] is 2.

B2: full-length IstB sensor-II mutant R237A (natural protein, Geobacillus stearothermophilus, UniProt Q45619 1-251, looked up)
chain: B1 chain with R237A
Consider B2, for which the “stoichiometry N” value in data set [2] turned out to be 2.

B3: full-length IstB Walker-A mutant K111A (natural protein, Geobacillus stearothermophilus, UniProt Q45619 1-251, looked up)
chain: B1 chain with K111A
With B3, the “stoichiometry N” value in data set [2] is 2.

B4: full-length IstB arginine finger mutant R221A (natural protein, Geobacillus stearothermophilus, UniProt Q45619 1-251, looked up)
chain: B1 chain with R221A
Consider B4, for which the “stoichiometry N” value in data set [2] is 2.

B5: full-length IstB Walker-B mutant E167Q (natural protein, Geobacillus stearothermophilus, UniProt Q45619 1-251, looked up)
chain: B1 chain with E167Q
Turning to B5, the “stoichiometry N” value in data set [2] was found to be 2.
